# Laboratory results: patent US20080213817A1, “Enhancement of Th2-Dependent and Inflammatory Response” (priority 2004, published 2008)
# B1: IL-4: recombinant IL-4 (R&D Systems), added exogenously (protein, UniProt P05112 25-153, looked up)
# Interleukin-4: HKCDITLQEIIKTLNSLTEQKTLCTELTVTDIFAASKNTTEKETFCRAATVLRQFYSHHEKDTRCLGATAQQFHRHKQLIRFLKRLDRNLWGLAGLNSCPVKEANQSTLENFLERLKTIMREKYSKCSS
# Tested on: WT thymocytes
# Test: Thymocyte proliferation, [3H] thymidine incorporation
# Format: cell-based, mice
# Settings: anti-CD3 or anti-CD3+anti-CD28, 72 hrs, increasing amounts of IL-4
# Protocol: For proliferation assays, purified thymocytes or CD4^+ or CD8^+ splenic T cells (2×10^5 cells/well) were cultured in round bottom 96-well plates (Costar) precoated with anti-CD3 antibody (BD Pharmingen) in the absence or presence of soluble anti-CD28 antibody (BD Pharmingen). After 3 days, cultures were pulsed for 6 hrs with 1 μCi [^3H] thymidine (New England Nuclear) per well and cells were harvested. [^3H] thymidine incorporation was measured by scintillation counting. When indicated, either recombinant IL-4 or neutralizing anti-IL-4 antibody (R&D Systems) were added prior to [^3H] thymidine labeling.
# For proliferation assays, purified thymocytes (2×10^5 cells/well) were cultured in round bottom 96-well plates (Costar) precoated with anti-CD3 antibody (BD Pharmingen) in the absence or presence of soluble anti-CD28 antibody (BD Pharmingen). […] [^3H] thymidine incorporation was measured by scintillation counting. […]
# The effect of the Mekk1^KD mutation on activation of JNK and other MAPKs in response to TCR and CD28 engagement was investigated. • A. WT and Mekk1^KD thymocytes were incubated with anti-CD3 (10 μg/ml) and anti-CD28 (1 μg/ml). At the indicated times, JNK activity was measured by an immunecomplex kinase assay using GST-c-Jun(1-79) as the substrate. Phosphorylated c-Jun was detected by autoradiography and quantitated using a PhosphorImager. […] Cell proliferation was measured as above. […]
molecule,measurement,value
B1,proliferative response of WT thymocytes on addition of exogenous IL-4,strongly potentiated
